Test results reported in FireProtDB (doi:10.1021/bi972279a).

Details: Saccharomyces cerevisiae (strain ATCC 204508 / S288c), pH 4.6, Thermal, CD, acetate 100 mM, reversible: yes; for ddG of mutation (higher = less stable) / heat capacity change of unfolding / unfolding free energy: 25 °C

Chain of Cytochrome c isoform 1 P82S, P00044 (P00044 whole entry P82S, canonical isoform): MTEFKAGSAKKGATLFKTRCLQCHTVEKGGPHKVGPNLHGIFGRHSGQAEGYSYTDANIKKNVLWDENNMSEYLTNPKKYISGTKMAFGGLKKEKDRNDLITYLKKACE
Chain of Cytochrome c isoform 1 P82G, P00044 (P00044 whole entry P82G, canonical isoform): as the sequence (P00044 whole entry P82S, canonical isoform) above, with S82G counted along it
Chain of Cytochrome c isoform 1 P82Y, P00044 (P00044 whole entry P82Y, canonical isoform): as the sequence (P00044 whole entry P82S, canonical isoform) above, with S82Y counted along it
Chain of Cytochrome c isoform 1 P82W, P00044 (P00044 whole entry P82W, canonical isoform): as the sequence (P00044 whole entry P82S, canonical isoform) above, with S82W counted along it
Chain of Cytochrome c isoform 1 wild type, P00044 (P00044 whole entry, canonical isoform): as the sequence (P00044 whole entry P82S, canonical isoform) above, with S82P counted along it
Chain of Cytochrome c isoform 1 P82R, P00044 (P00044 whole entry P82R, canonical isoform): as the sequence (P00044 whole entry P82S, canonical isoform) above, with S82R counted along it
Chain of Cytochrome c isoform 1 P82V, P00044 (P00044 whole entry P82V, canonical isoform): as the sequence (P00044 whole entry P82S, canonical isoform) above, with S82V counted along it
Chain of Cytochrome c isoform 1 P82L, P00044 (P00044 whole entry P82L, canonical isoform): as the sequence (P00044 whole entry P82S, canonical isoform) above, with S82L counted along it

Substance	ddG of mutation (higher = less stable) (structure 1YCC) [kcal/mol]	heat capacity change of unfolding (structure 1YCC) [kcal/mol/K]	unfolding free energy (structure 1YCC) [kcal/mol]	Tm (structure 1YCC) [°C]	change of melting temperature, mutant - wild type (higher = more stable) (structure 1YCC) [°C]	heat capacity change of unfolding [kcal/mol/K]	unfolding free energy [kcal/mol]	Tm [°C]
Cytochrome c isoform 1 P82R, P00044	0.97	1.37	4.11	48.6	-4.9	–	–	–
Cytochrome c isoform 1 P82G, P00044	0.78	1.37	4.3	48.5	-5	–	–	–
Cytochrome c isoform 1 P82L, P00044	–	–	–	48.6	-4.9	–	–	–
Cytochrome c isoform 1 P82V, P00044	1.07	1.37	4.01	48.3	-5.2	–	–	–
Cytochrome c isoform 1 P82S, P00044	1.89	1.37	3.19	47.8	-5.7	–	–	–
Cytochrome c isoform 1 P82W, P00044	2.38	1.37	2.7	47	-6.5	–	–	–
Cytochrome c isoform 1 wild type, P00044	–	–	–	–	–	1.37	5.08	53.5
Cytochrome c isoform 1 P82Y, P00044	2.07	1.37	3.01	46.7	-6.8	–	–	–
